In experiment [1] the target is recombinant mouse FGFR2b (mouse) (UniProt P21803). The experiment is described as follows: ELISA, antibody 1ug/mL.
Another experiment has as its target FGFR1 (acro) (UniProt P11362). As to the kind of experiment: ELISA, antibody 10 µg/mL.
The target in experiment [2] is recombinant mouse FGFR2b (mouse) (UniProt P21803). The experiment is described as follows: BLI, antibody on AHC2 sensor. On the technique in general: In BLI a coated tip is dipped into the sample, and binding shifts an interference pattern.

Chain of recombinant mouse FGFR2b (mouse) (P21803 22-377): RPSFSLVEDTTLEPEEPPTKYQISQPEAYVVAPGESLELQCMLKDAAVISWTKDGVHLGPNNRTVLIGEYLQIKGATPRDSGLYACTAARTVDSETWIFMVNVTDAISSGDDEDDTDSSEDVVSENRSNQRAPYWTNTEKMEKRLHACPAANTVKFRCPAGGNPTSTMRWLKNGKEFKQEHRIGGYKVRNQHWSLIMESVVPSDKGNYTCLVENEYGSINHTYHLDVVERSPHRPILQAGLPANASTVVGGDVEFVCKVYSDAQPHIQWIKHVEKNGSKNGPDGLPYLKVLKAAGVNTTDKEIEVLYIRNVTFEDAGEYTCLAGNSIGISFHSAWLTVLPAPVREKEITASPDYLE
Chain of FGFR1 (acro) (P11362 22-376): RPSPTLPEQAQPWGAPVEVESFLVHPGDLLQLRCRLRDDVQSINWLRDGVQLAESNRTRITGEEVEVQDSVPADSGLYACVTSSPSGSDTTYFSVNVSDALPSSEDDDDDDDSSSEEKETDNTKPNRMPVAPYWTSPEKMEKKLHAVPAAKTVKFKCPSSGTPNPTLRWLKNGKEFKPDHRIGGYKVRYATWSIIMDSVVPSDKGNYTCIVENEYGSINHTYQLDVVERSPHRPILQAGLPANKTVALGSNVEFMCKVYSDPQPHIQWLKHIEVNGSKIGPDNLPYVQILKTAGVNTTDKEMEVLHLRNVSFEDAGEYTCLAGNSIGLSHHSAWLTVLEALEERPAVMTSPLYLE

B1: 3E7 scFv-Fc (Fc fusion)
chain: QVQLQQSGAELVKPGASVKMSCKASGYTFTIYNIHWVRQTPGQGLEWIGLIYPDNGDTSYNQKFKAKATLTADKSSSTAYMQLSSLTSEDSAVYYCARGGFDYWGQGTTLTVSSGGGGSGGGGSGGGGSNIVMTQSQKFMSTSVGDRVSVTCKASQNVGTNVAWYQQKPGQSPKALIYSASYRYSGVPDRFTGSGSGTDFTLTISGVQAEDLADYYCQQHYNTPYTFGGGTKLEIKESKYGPPCPPCPAPEAAGGPSVFLFPPKPKDTLMISRTPEVTCVVVDVSQEDPEVQFNWYVDGVEVHNAKTKPREEQFNSTYRVVSVLTVLHQDWLNGKEYKCKVSNKGLPSSIEKTISKAKGQPREPQVYTLPPSQEEMTKNQVSLTCLVKGFYPSDIAVEWESNGQPENNYKTTPPVLDSDGSFFLYSKLTVDKSRWQEGNVFSCSVMHEALHNHYTQKSLSLSLG
For B1, the OD (450 nm) value in experiment [1] amounted to 2.29. For the same molecule, the OD (450 nm) value with FGFR1 (acro) was determined as 0.093. Moreover, in experiment [2], the dissociation constant Kd (in general, the concentration at which binding is half-saturated) turned out to be 40.9 nM; the koff (usually a measure of how fast the partners let go of each other) came out at 0.00175 s⁻¹; the kon (usually a measure of how fast the partners come together) turned out to be 42800 M⁻¹ s⁻¹.

B2: 3C7 scFv-Fc (Fc fusion)
chain: EIQLQQSGAELVKPGASVKMSCKASGYIFRNYYIHWVKRTPGQGLEWIGAIYPDNGDTSYNQRFKVKATLTADTSSSTAYMQLSSLTSEDSAVYYCARAFTYWGQGTTLTVSSGGGGSGGGGSGGGGSDIQMIQSPASLSASVGETVTITCGASENIYGALNWYQRKQGKSPQLLIYGATNLADGMSSRFSGSGSGRQYSLKISSLHPDDVATYYCQNVLSTPYTFGGGTKLEIKESKYGPPCPPCPAPEAAGGPSVFLFPPKPKDTLMISRTPEVTCVVVDVSQEDPEVQFNWYVDGVEVHNAKTKPREEQFNSTYRVVSVLTVLHQDWLNGKEYKCKVSNKGLPSSIEKTISKAKGQPREPQVYTLPPSQEEMTKNQVSLTCLVKGFYPSDIAVEWESNGQPENNYKTTPPVLDSDGSFFLYSKLTVDKSRWQEGNVFSCSVMHEALHNHYTQKSLSLSLG
Take B2: the OD (450 nm) value in experiment [1] is 3.1. This molecule yielded an OD (450 nm) value with FGFR1 (acro) of 0.077. Moreover, in experiment [2], the dissociation constant Kd was found to be 8.71 nM, the koff is 0.000365 s⁻¹ and the kon stood at 41900 M⁻¹ s⁻¹.

B3: 3H6 scFv-Fc (Fc fusion)
chain: QVQLQQSGAELVKPGASVKMSCKASGYTFSFYNIHWVRQTPGQGLEWIGLIYPDNGDTSYNQKFKAKATLTADKSSSTAYMQLSSLTSEDSAVYYCARGGFDYWGQGTTLTVSSGGGGSGGGGSGGGGSDIQMTQSPASLSASVGETVTITCRASENIYSYLAWYQQKQGKSPQLLVYNAKTLAEGVPSRFSGSGSGTQFSLKINSLQPEDFGSYYCQHHYGTPYTFGGGTKLEMKESKYGPPCPPCPAPEAAGGPSVFLFPPKPKDTLMISRTPEVTCVVVDVSQEDPEVQFNWYVDGVEVHNAKTKPREEQFNSTYRVVSVLTVLHQDWLNGKEYKCKVSNKGLPSSIEKTISKAKGQPREPQVYTLPPSQEEMTKNQVSLTCLVKGFYPSDIAVEWESNGQPENNYKTTPPVLDSDGSFFLYSKLTVDKSRWQEGNVFSCSVMHEALHNHYTQKSLSLSLG
For the molecule B3, the OD (450 nm) value in experiment [1] came out at 2.39. The molecule further registered an OD (450 nm) value with FGFR1 (acro) of 0.077. For the same molecule, in experiment [2], the equilibrium dissociation constant (Kd) was 43.7 nM, the koff worked out at 0.00156 s⁻¹ and the association rate constant (kon) was found to be 35700 M⁻¹ s⁻¹.

B4: 3F10 scFv-Fc (Fc fusion)
chain: EVQLQQSGAELVKPGASVKMSCKASGYTFSFYNIHWVRQTPGQGLEWIGLIYPDNGDTSYNQKFKAKATLTADKSSSTAYMQLSSLTSEDSAVYYCARGGFDYWGQGTTLTVSSGGGGSGGGGSGGGGSDVLMTQSPASLSASVGETVTITCGASENIYGALNWYQRKQGKSPQLLIYGATNLADGMSSRFSGSGSGRQYSLKISSLHPDDVATYYCQNVLSTPYTFGGGTKLEIKESKYGPPCPPCPAPEAAGGPSVFLFPPKPKDTLMISRTPEVTCVVVDVSQEDPEVQFNWYVDGVEVHNAKTKPREEQFNSTYRVVSVLTVLHQDWLNGKEYKCKVSNKGLPSSIEKTISKAKGQPREPQVYTLPPSQEEMTKNQVSLTCLVKGFYPSDIAVEWESNGQPENNYKTTPPVLDSDGSFFLYSKLTVDKSRWQEGNVFSCSVMHEALHNHYTQKSLSLSLG
As for B4, the OD (450 nm) value in experiment [1] is 2.87. The molecule also showed an OD (450 nm) value in the experiment with FGFR1 (acro) of 0.086. In experiment [2], the dissociation constant Kd turned out to be 52.5 nM, the koff is 0.00217 s⁻¹ and the association rate constant (kon) amounted to 41300 M⁻¹ s⁻¹.

B5: 3H9 scFv-Fc (Fc fusion)
chain: EIQLQQSGAELVKPGASVKMSCKASGYTFSFYNMHWVKRTPGQGLEWIGLIYPDNGDTSYNQKFKGKATLTADTSSSTAYMQLSSLTSEDSAVYYCARGGLDYWGQGTTLTVSSGGGGSGGGGSGGGGSDIVLTQSPASLSVSVGETVTITCRASENIYSNLAWYQQKQGKSPQLLVYAATNLADGVPSRFSGSGSGTQYSLKINSLQSEDFGSYYCQHFWGTPYTFGGGTKLELKESKYGPPCPPCPAPEAAGGPSVFLFPPKPKDTLMISRTPEVTCVVVDVSQEDPEVQFNWYVDGVEVHNAKTKPREEQFNSTYRVVSVLTVLHQDWLNGKEYKCKVSNKGLPSSIEKTISKAKGQPREPQVYTLPPSQEEMTKNQVSLTCLVKGFYPSDIAVEWESNGQPENNYKTTPPVLDSDGSFFLYSKLTVDKSRWQEGNVFSCSVMHEALHNHYTQKSLSLSLG
With B5, the OD (450 nm) value in experiment [1] is 2.99. Besides, the OD (450 nm) value with FGFR1 (acro) amounted to 0.646. In experiment [2], the Kd came out at 23.8 nM, the off-rate constant (koff) is 0.00129 s⁻¹ and the kon was 54200 M⁻¹ s⁻¹.

B6: 3E1 scFv-Fc (Fc fusion)
chain: QVQLQQPGAEVVKPGASVKMSCKASGYTFTDYYIHWVKQTPGQGLEWIGAIYPDNGDTSYNQKFKVKATLTADKSSSTAYMQLSSLTSEDSAVYYCARAFTYWGQGTLVTVSAGGGGSGGGGSGGGGSDILITQSPASLSASVGETVTITCGASENIYGALNWYQRKQGKSPQLLIYGATNLADGMSSRFSGSGSGRQYSLKISSLHPDDVATYYCQNVLSTPYTFGGGTKLEIKESKYGPPCPPCPAPEAAGGPSVFLFPPKPKDTLMISRTPEVTCVVVDVSQEDPEVQFNWYVDGVEVHNAKTKPREEQFNSTYRVVSVLTVLHQDWLNGKEYKCKVSNKGLPSSIEKTISKAKGQPREPQVYTLPPSQEEMTKNQVSLTCLVKGFYPSDIAVEWESNGQPENNYKTTPPVLDSDGSFFLYSKLTVDKSRWQEGNVFSCSVMHEALHNHYTQKSLSLSLG
For B6, in experiment [1], the OD (450 nm) value worked out at 2.92. In addition, in the experiment with FGFR1 (acro), the OD (450 nm) value stood at 0.08. Further, in experiment [2], the dissociation constant (Kd) worked out at 21.8 nM, the dissociation rate constant (koff) is 0.00126 s⁻¹ and the kon was found to be 57800 M⁻¹ s⁻¹.

B7: 3D6 scFv-Fc (Fc fusion)
chain: QVQLQQSGAELVKPGASVKMSCKASGYTFRYYNMHWVKRTPGQGLEWIGLIYPDNGDTSYNQKFKGKATLTADTSSSTAYMQLSSLTSEDSAVYYCARGGLDYWGQGTSLTVSSGGGGSGGGGSGGGGSDIQMTQSPASLSVSVGETVTITCRASENIYSNLAWYQQKQGKSPQLLVYNAKTLADGVPSRFSGSGSGTQYSLKINSLQPEDFGSYYCQHFWSTPFTFGSGTKLELKESKYGPPCPPCPAPEAAGGPSVFLFPPKPKDTLMISRTPEVTCVVVDVSQEDPEVQFNWYVDGVEVHNAKTKPREEQFNSTYRVVSVLTVLHQDWLNGKEYKCKVSNKGLPSSIEKTISKAKGQPREPQVYTLPPSQEEMTKNQVSLTCLVKGFYPSDIAVEWESNGQPENNYKTTPPVLDSDGSFFLYSKLTVDKSRWQEGNVFSCSVMHEALHNHYTQKSLSLSLG
On to B7, for which the OD (450 nm) value in experiment [1] was found to be 2.59. The same molecule displayed an OD (450 nm) value with FGFR1 (acro) of 0.693. In experiment [2], the Kd is 21.7 nM, the off-rate constant (koff) worked out at 0.000593 s⁻¹ and the kon is 27400 M⁻¹ s⁻¹.

B8: 3F5 scFv-Fc (Fc fusion)
chain: EIQLQQSGAELVKPGASVKMSCKASGYTFRYYNMHWVKRTPGQGLEWIGLIYPDNGDTSYNQKFKGKATLTADTSSSTAYMQLSSLTSEDSAVYYCARGGLDYWGQGTTLTVSSGGGGSGGGGSGGGGSDIVLTQSPASLSASVGETVTITCGASENIYGALNWYQRKQGKSPQLLIYGATNLADGMSSRFSGSGSGRQYSLKISSLHPDDVATYYCQNVLSTPYTFGGGTKLEIKESKYGPPCPPCPAPEAAGGPSVFLFPPKPKDTLMISRTPEVTCVVVDVSQEDPEVQFNWYVDGVEVHNAKTKPREEQFNSTYRVVSVLTVLHQDWLNGKEYKCKVSNKGLPSSIEKTISKAKGQPREPQVYTLPPSQEEMTKNQVSLTCLVKGFYPSDIAVEWESNGQPENNYKTTPPVLDSDGSFFLYSKLTVDKSRWQEGNVFSCSVMHEALHNHYTQKSLSLSLG
With B8, the OD (450 nm) value in experiment [1] is 2.38. This molecule also yielded an OD (450 nm) value with FGFR1 (acro) of 0.108. Also, in experiment [2], the Kd amounted to 36.1 nM, the koff was determined as 0.00162 s⁻¹ and the kon was found to be 44800 M⁻¹ s⁻¹.

B9: 3C9 scFv-Fc (Fc fusion)
chain: EIQLQQSGAELVKPGASVKMSCKASGYIFRYYNMHWVKRTPGQGLEWIGLIYPDNGDTSYNQKFKGKATLTADTSSSTAYMQLSSLTSEDSAVYYCARGGLDYWGQGTTLTVSSGGGGSGGGGSGGGGSDIQMIQSPASLSASVGETVTITCGASENIYGALNWYQRKQGKSPQLLIYGATNLADGMSSRFSGSGSGRQYSLKISSLHPDDVATYYCQNVLSTPYTFGGGTKLEIKESKYGPPCPPCPAPEAAGGPSVFLFPPKPKDTLMISRTPEVTCVVVDVSQEDPEVQFNWYVDGVEVHNAKTKPREEQFNSTYRVVSVLTVLHQDWLNGKEYKCKVSNKGLPSSIEKTISKAKGQPREPQVYTLPPSQEEMTKNQVSLTCLVKGFYPSDIAVEWESNGQPENNYKTTPPVLDSDGSFFLYSKLTVDKSRWQEGNVFSCSVMHEALHNHYTQKSLSLSLG
Turning to B9, in experiment [1], the OD (450 nm) value was determined as 2.57. In the experiment with FGFR1 (acro), this molecule yielded an OD (450 nm) value of 0.113. In addition, in experiment [2], the Kd turned out to be 9.95 nM, the off-rate constant (koff) was determined as 0.000483 s⁻¹ and the kon turned out to be 48500 M⁻¹ s⁻¹.

B10: 3E2 scFv-Fc (Fc fusion)
chain: EIQLQQSGAELVKPGASVKMSCKASGYTFSFYNMHWVKRTPGQGLEWIGLIYPDNGDTSYNQKFKGKATLTADTSSSTAYMQLSSLTSEDSAVYYCARGGLDYWGQGTSLTVSSGGGGSGGGGSGGGGSNIVMTQSQKFMSTSVGDRVSVTCKASQNVGTNVAWYQQKPGQSPKALIYSASYRYTGVPDRFTGSGSGTDFTFTISSVQAEDLAVYYCQQHYSTPYTFGGGTKLEIKESKYGPPCPPCPAPEAAGGPSVFLFPPKPKDTLMISRTPEVTCVVVDVSQEDPEVQFNWYVDGVEVHNAKTKPREEQFNSTYRVVSVLTVLHQDWLNGKEYKCKVSNKGLPSSIEKTISKAKGQPREPQVYTLPPSQEEMTKNQVSLTCLVKGFYPSDIAVEWESNGQPENNYKTTPPVLDSDGSFFLYSKLTVDKSRWQEGNVFSCSVMHEALHNHYTQKSLSLSLG
For B10, the OD (450 nm) value in experiment [1] was found to be 2.96. Further, the OD (450 nm) value with FGFR1 (acro) was 0.122. In addition, in experiment [2], the Kd worked out at 36.5 nM, the off-rate (koff) is 0.00152 s⁻¹ and the kon was determined as 41800 M⁻¹ s⁻¹.

Source of the values: patent publication EP4714976A1.
